The source of these data is US5516515A, “Separation of alpha interferon receptor proteins and antibodies therefor” (priority 1990, dated 1996).

The subject of data set [1] is human HEp-2 cells challenged with vesticular stomatitis virus (Indiana Strain). Description: cytopathic effect (CPE) assay of interferon biological (antiviral) activity. It counts as cell-based. The settings on record: NIH reference units. As to the method: Ultrapure natural interferon alpha was prepared by incubating human peripheral blood cultures with Sendai virus. The culture supernatant was purified over an anti-interferon alpha column (NK-2 sepharose). […] The biological activity of interferons alpha, beta and gamma were determined by the cytopathic effect (CPE) assay on human HEp-2 cells challenged with vesticular stomatitis virus (Indiana Strain). All titers were calibrated against the NIH reference standards for alpha (#Ga23-902-503) and gamma (Gg 23-901-530) interferons. All titers are expressed as NIH reference units.

The target of data set [2] is T1, Daudi cell receptor sites (Homo sapiens, UniProt P17181+P48551).
T1 construct: endogenous in cells; host or cells: Daudi (human lymphoblastoid) cells
T1 sequence (P48551 27-515): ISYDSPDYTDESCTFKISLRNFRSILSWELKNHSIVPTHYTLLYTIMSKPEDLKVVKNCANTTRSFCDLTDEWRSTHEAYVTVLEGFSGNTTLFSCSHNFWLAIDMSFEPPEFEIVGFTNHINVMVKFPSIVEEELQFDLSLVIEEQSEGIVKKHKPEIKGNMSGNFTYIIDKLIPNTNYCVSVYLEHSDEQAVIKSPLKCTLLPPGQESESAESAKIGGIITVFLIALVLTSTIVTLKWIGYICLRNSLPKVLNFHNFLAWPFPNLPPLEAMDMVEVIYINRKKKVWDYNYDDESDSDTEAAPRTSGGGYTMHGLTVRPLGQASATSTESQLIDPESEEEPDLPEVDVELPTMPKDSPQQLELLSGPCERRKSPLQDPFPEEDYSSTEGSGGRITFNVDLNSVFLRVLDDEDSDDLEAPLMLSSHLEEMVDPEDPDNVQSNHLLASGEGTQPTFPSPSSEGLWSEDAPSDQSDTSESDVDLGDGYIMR
T1 sequence (P17181 28-557): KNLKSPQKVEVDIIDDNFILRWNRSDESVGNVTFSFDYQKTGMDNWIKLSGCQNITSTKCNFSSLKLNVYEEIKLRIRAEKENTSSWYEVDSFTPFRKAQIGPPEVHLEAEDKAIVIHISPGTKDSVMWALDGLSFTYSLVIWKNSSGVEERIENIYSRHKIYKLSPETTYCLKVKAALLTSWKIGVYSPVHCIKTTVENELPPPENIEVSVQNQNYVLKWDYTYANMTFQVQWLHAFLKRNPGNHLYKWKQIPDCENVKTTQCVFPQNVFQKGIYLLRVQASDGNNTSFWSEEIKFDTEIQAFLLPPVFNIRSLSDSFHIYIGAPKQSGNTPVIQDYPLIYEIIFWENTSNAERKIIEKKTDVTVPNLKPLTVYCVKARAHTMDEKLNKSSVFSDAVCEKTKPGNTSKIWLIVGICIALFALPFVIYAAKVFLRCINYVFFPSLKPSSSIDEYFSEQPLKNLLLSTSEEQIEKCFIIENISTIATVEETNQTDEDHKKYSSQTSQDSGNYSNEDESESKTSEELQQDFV
Description: Competition experiments: displacement of 125I-IFN-alpha-2 from Daudi cells. The settings on record: 100 fold excess of unlabeled IFN. It counts as binding.

B1: IFN gamma: Human IFN gamma produced in human peripheral blood cultures containing lymphocytes stimulated with phytohemagglutinin, purified by affinity chromatography (protein, UniProt P01579 24-161, looked up)
Interferon gamma: QDPYVKEAENLKKYFNAGHSDVADNGTLFLGILKNWKEESDRKIMQSQIVSFYFKLFKNFKDDQSIQKSVETIKEDMNVKFFNSNKKKRDDFEKLTNYSVTDLNVQRKAIHELIQVMAELSPAAKTGKRKRSQMLFRG
As to B1, the specific activity in data set [1] was 2×10^7 U/rag of protein. Besides, the “reduction in the binding of 125I-IFN-alpha2 for Daudi cells” value in data set [2] is recorded as “does not compete”.
